Read-outs that look alike come from different tables or passages of the source. *1 amine or outer side, *2 acyl side, *3 side chain or, on linkers, in order; H or OH if unused. Where a SMILES comes first, the peptide text is derived from it. [ ]: non-standard residue; d: D form. The star is where a group is joined. Doxorubicin(3'-N) = COc1cccc2c1C(=O)c1c(O)c3c(c(O)c1C2=O)C[C@@](O)(C(=O)CO)C[C@@H]3O[C@H]1C[C@H](N*)[C@H](O)[C@H](C)O1; PABC = O=C(OCc1ccc(N[*:1])cc1)[*:2]
Experiments:
[1] = rat, in vivo; for Cmax: Sprague Dawley
Protocol: (§1) Quantitative analysis was performed by measuring the fluorescence intensity in plasma, and using a standard curve to determine concentration (FIG. 9).

[2] = test system: MDA-MB-231 human breast cancer cell line; assay: MTT cytotoxicity assay combined with radiation (4 Gy) and/or caspase inhibitor Z-VAD-FMK; type: cell-based; details: by itself, without radiation
Protocol: The degree of cytotoxicity of DEVD-S-DOX was assessed using an in vitro MTT assay and combined radiation therapy in the MDA-MB-231 human breast cancer cell line. The MDA-MB-231 cell line was irradiated with radiation and the expression of caspase-3 was evaluated. Western blot (FIG. 6A) and a cellular caspase-3 activity assay (FIG. 6B) confirmed that the expression of caspase-3 increased over time.
Next, the cancer cells were cultured in a 96-well microplate at the density of 5×10^4 cell/well in DMEM (10% FBS) medium for 24 hours, and then treated with DEVD-S-DOX or 5 μM Doxorubicin. Some of the test groups were also treated with Z-VAD-FMK, which is a caspase inhibitor. Then cells were irradiated with 4 Gy of radiation, and after 24 and 48 hours, cell viability was assessed against the controls using an MTT assay (FIG. 7). […] This confirmed that caspase-3 was expressed via radiation therapy in the cancer cells, which then activated DEVD-S-DOX and led to a synergistic cytotoxic effect.

in vivo = details: Sprague Dawley, rat
Protocol: as §1

[3] = Toxicity evaluation: hematological and biochemical parameters and histology after one month of administration; details: 2.5 mg/kg
[4] = test system: human breast cancer cells MDA-MB-231; assay: MTT cytotoxicity assay with or without human recombinant caspase-3; details: read-out: IC50 cytotoxicity (MTT); pretreated with caspase-3 (500 ng/mL), 48 hours
Protocol: The cytotoxicity of DEVD-S-DOX in human breast cancer cells MDA-MB-231 was assessed using MTT assay with or without the treatment with human recombinant caspase-3. After the cancer cells were placed on a 96-well microplate at the concentration of 5×10^4 cell/well and cultured in DMEM (10% FBS) media for 24 hours, doxorubicin, DEVD-S-DOX, and DEVD-S-DOX, pre-treated with caspase-3 (500 ng/mL), were added at concentrations ranging from 0.01-100 μM, and further cultured for 48 hours. After that, 10 μL of MTT agent were added to each well and cultured for 2 hours at 37° C. until a blue precipitate forms. At this point, 100 μL of detergent agent was added and cultured for 4 hours at room temperature. Optical density was measured in each well at 570 nm to determine cell viability.

MDA-MB-436 xenograft = assay: MDA-MB-436 xenograft, daily oral dosing with or without olaparib; type: in vivo, female NSG SCID mouse; details: monotherapy, 50 mg/kg intraperitoneal, 5 days on/2 days off for two weeks
Protocol: Human breast cancer MDA-MB-436 cells were transplanted into a female NSG SCID mouse, and when the cancer tumor size reached 100-150 mm^3, 3 mg/kg of DEVD-S-DCX/DCK (based on the docetaxel content), was orally administered daily. 50 mg/kg of olaparib was administered by intraperitoneal injection daily for the first five days of every week for two weeks (5 days on/2 days off). In addition, a test group without olaparib was daily orally administered 3 mg/kg DEVD-S-DCX/DCK (based on the docetaxel content).

## COc1cccc2c1C(=O)c1c(O)c3c(c(O)c1C2=O)C[C@@](O)(C(=O)CO)C[C@@H]3O[C@H]1C[C@H](NC(=O)OCc2ccc(NC(=O)[C@H](CC(=O)O)NC(=O)[C@@H](NC(=O)[C@H](CCC(=O)O)NC(=O)[C@H](CC(=O)O)NC(=O)CNC(=O)[C@H](CCCCN)NC(C)=O)C(C)C)cc2)[C@H](O)[C@H](C)O1 [DEVD-S-DOX, Ac-KGDEVD-PABC-Doxorubicin] (Ac-KGDEVD[PABC]-{Doxorubicin(3'-N)})
[1]; iv, 1 mg/kg
  Cmax: 3370 ± 310 ng/mL
[1]; po, 10 mg/kg
  Cmax: 72 ± 33 ng/mL
  BA (bioavailability): negligible bioavailability
[2]
  cytotoxicity (MTT): did not show any noticeable cytotoxicity
In vivo; iv, 1 mg/kg
  AUC(0-inf): 3370 ± 250 ng·h/mL
  AUC(0-t): 3110 ± 290 ng·h/mL
  MRT: 2.01 ± 0.28 h
In vivo; po, 10 mg/kg
  AUC(0-inf): 130 ± 60 ng·h/mL
  AUC(0-t): 100 ± 50 ng·h/mL
  MRT: 1.18 ± 0.03 h
  Tmax: 1 h
  bioavailability: 0.45 ± 0.22%
[3]
  BASO: 1.0 ± 0.5%
[3]; normal range 1.0-5.0
  MONO: 6.8 ± 1.7%
[3]; normal range 4.0-15.0
  WBC: 12.8 ± 5.4 m/mm^3
[3]; normal range 6.0-11.0
  RBC: 7.1 ± 1.4 M/mm^3
[3]; normal range 10.0-30.0
  Segment: 18.2 ± 0.7%
[3]; normal range 13.0-22.0
  MCH: 16.4 ± 1.8 pg
[3]; normal range 14.0-18.0
  Hb: 11.4 ± 1.3 g/dL
[3]; normal range 24.0-40.0
  MCHC: 33.4 ± 3.8 g/dL
[3]; normal range 35.0-45.0
  Hct: 35.1 ± 7.2%
[3]; normal range 35.0-50.0
  MCV: 49.2 ± 7.2 fL
[3]; normal range 70.0-81.0
  Lympho: 71.0 ± 4.9%
[3]; normal range 600-1000
  Platelet: 1008 ± 392 m/mm^3
[3]; normal range <10.0
  EOS: 2.8 ± 1.4%
[4]
  IC50: 1780 nM

## O=C(c1cc(Cc2n[nH]c(=O)c3ccccc23)ccc1F)N1CCN(C(=O)C2CC2)CC1 [olaparib]
MDA-MB-436 xenograft
  tumor growth suppression: ineffective
